Results from patent publication US7803750.

Target: tyrosinase protein of murine B16 melanoma tumors and melan-A murine melanocytes (murine) (UniProt P11344)
Test: cell-based or functional assay

Chain of UniProt P11344 (P11344 19-533 limits assumed): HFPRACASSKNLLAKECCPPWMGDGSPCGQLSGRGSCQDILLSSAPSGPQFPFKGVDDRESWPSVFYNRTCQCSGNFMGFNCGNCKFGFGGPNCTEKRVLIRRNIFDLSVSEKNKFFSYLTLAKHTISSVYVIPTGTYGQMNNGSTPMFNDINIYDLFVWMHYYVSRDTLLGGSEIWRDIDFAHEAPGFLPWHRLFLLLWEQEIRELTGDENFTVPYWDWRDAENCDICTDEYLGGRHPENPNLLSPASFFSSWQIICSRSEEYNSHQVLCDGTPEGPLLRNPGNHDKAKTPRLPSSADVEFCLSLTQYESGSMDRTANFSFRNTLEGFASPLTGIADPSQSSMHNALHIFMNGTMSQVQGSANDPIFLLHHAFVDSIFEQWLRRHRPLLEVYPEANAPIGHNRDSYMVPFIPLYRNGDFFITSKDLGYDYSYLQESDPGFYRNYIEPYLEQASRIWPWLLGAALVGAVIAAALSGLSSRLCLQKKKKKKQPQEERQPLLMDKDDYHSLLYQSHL

epitope-tagged recombinant human (rh) ZAG (zinc alpha-2-glycoprotein) with myc and 6-His 3' epitope tags (from UniProt P25311 21-298)
decrease in color development with L-DOPA (tyrosinase activity in frozen sections of B16-V tumors): 25 to 50%
